Data as given in US20170096493A1 (EISAI R AND D MANAGEMENT, published 2017).

Key:
[1] = target: T1, Notch4 with a part of the intracellular domain substituted with GAL4 DNA binding domain, on b.end3 reporter …; assay: cell-based or functional assay
[2] = target: T1, Notch4 with a part of the intracellular …; assay: cell-based or functional assay; remark: listed apart in the source
[3] = target: T2, Human Notch4-NRR domain Fc fusion protein (human, UniProt Q99466 1046-1445, limits assumed); assay: SPR (Biacore) as for Table 30; Notch4-NRR-Fc captured, antibody injected; averaged, N=2
T2 construct: Expressed in a CHO cell line, used from culture supernatant; 1 is named; also called Human Notch4-NRR Fusion Protein; not shown: Fc
T2 sequence: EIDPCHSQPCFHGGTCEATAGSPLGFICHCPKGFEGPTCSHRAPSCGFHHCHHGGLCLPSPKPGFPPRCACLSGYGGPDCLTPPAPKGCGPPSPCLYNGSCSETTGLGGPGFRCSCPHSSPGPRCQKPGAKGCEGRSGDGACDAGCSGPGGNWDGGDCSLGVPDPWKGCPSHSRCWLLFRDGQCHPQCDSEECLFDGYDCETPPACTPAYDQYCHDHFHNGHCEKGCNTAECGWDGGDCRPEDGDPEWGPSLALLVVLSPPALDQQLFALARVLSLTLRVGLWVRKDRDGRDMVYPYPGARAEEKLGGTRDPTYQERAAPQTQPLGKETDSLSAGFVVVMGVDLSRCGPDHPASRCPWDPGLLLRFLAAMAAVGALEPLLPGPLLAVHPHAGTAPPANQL

[4] = target: T3, Human Notch4-NRR domain fused with secretory alkaline phosphatase (SEAP) and 10× histidine tag (human, UniProt Q99466 1046-1445); assay: SPR (Biacore); antibody captured by anti-human IgG Fc on CM5, Notch4-NRR-SEAP-His injected
T3 construct: 1 is named; not shown: secretory alkaline phosphatase (SEAP); 10x histidine tag
T3 sequence: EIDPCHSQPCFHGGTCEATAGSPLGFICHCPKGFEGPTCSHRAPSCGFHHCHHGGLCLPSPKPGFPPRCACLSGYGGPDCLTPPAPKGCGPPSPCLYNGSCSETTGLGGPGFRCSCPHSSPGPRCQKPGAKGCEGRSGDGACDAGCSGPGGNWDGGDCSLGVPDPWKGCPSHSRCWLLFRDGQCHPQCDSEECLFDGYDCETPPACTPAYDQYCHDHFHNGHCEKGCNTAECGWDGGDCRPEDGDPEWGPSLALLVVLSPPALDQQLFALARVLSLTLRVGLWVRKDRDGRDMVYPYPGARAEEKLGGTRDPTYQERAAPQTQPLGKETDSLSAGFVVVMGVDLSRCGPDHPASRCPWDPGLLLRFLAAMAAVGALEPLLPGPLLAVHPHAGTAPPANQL
Method: (§1) Kinetic analysis of the interaction of human, cynomolgus monkey, mouse, and rat Notch4-NRR domains with Antibody B was carried out with BIACORE. […] The genes for these proteins were transfected into Expi293F cells in Opti-MEM (INVITROGEN) using ExpiFectamine 293. These cells were cultured in Expi293 Expression Medium (INVITROGEN). Briefly, cells were diluted to 7.5×10⁷ cells/25.5 mL, and transfected by ExpiFectamine 293 reagent on Day 0. About 16 hours after transfection, 150 uL of ExpiFectamine 293 Transfection Enhancer 1 and 1.5 mL of ExpiFectamine 293 Transfection Enhancer 2 were added to each flask. The supernatant was collected on Day 4. These antigens were purified with Ni-NTA Superflow column (QIAGEN). The interaction was analyzed as below. The purified Antibody B was captured by anti-human IgG Fc antibody fixed on a CM5 sensor chip (GE healthcare). The purified Notch4-NRR fusion proteins were injected onto the sensor chip at 8 different concentrations, and the interaction and dissociation thereof were observed as per manufacturer's instructions.

[5] = target: T4, Cynomolgus monkey Notch4-NRR domain fused with SEAP and 10× histidine tag (cynomolgus monkey, UniProt P05187 23-511 (human entry)); assay: as above
T4 construct: not shown: 10x histidine tag
T4 sequence (P05187 23-511): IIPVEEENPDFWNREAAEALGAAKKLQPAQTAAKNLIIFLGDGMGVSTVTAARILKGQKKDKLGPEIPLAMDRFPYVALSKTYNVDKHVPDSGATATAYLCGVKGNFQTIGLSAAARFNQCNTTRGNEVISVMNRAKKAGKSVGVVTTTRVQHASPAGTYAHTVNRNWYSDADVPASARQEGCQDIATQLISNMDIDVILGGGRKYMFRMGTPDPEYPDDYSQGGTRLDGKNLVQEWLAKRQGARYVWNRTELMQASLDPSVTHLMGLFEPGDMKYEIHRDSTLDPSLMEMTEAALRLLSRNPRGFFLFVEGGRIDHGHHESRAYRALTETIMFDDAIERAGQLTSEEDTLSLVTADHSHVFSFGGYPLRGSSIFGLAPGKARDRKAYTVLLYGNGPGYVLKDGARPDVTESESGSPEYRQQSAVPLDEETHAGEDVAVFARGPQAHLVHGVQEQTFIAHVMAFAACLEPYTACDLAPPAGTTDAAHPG
Method: as §1

[6] = target: T5, Mouse Notch4-NRR domain fused with SEAP and 10× histidine tag (mouse, UniProt P31695 1042-1441); assay: as above
T5 construct: domain: Notch4-NRR domain; not shown: secretory alkaline phosphatase (SEAP); 10x histidine tag
T5 sequence (looked up): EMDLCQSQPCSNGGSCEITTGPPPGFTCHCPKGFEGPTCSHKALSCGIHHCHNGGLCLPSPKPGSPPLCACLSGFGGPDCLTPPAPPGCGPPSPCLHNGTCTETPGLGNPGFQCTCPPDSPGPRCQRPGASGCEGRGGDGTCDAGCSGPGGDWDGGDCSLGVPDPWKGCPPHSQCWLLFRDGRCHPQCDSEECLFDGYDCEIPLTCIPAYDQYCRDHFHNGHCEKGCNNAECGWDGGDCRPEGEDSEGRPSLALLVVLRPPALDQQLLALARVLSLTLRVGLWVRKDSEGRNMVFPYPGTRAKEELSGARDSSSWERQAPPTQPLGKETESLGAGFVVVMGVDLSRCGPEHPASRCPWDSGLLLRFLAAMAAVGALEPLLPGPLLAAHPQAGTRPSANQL
Method: as §1

[7] = target: T2, Human Notch4-NRR domain Fc fusion …; assay: SPR (Biacore); Notch4-NRR-Fc captured by another anti-Notch4 antibody on CM5, antibody injected
Method: Kinetic analysis of further anti-Notch4 inhibitory humanized antibodies was carried out as follows. Human Notch4-NRR domain Fc fusion proteins were expressed with a CHO cell line. The antigen in the culture supernatant was captured by the anti-human Notch4 antibody fixed on a CM5 sensor chip that recognizes different epitopes of human Notch4. The humanized anti-human Notch4 antibody was then injected onto the sensor chip at various concentrations. The interaction and disassociation constants thereof were calculated according to manufacturer's instructions.

[8] = target: T6, Human Notch4-NRR-SEAP-HA-His (human, UniProt Q99466 1046-1445); assay: SPR (BIAcore T100); antibody captured by anti-human IgG Fc on CM5, NRR-SEAP-HA-His injected at 6 concentrations
T6 construct: also called human Notch4-NRR-SEAP-His; human Notch4 NRR domain; not shown: secretory alkaline phosphatase (SEAP); hemagglutinin (HA) tag; histidine tag (x10)
T6 sequence: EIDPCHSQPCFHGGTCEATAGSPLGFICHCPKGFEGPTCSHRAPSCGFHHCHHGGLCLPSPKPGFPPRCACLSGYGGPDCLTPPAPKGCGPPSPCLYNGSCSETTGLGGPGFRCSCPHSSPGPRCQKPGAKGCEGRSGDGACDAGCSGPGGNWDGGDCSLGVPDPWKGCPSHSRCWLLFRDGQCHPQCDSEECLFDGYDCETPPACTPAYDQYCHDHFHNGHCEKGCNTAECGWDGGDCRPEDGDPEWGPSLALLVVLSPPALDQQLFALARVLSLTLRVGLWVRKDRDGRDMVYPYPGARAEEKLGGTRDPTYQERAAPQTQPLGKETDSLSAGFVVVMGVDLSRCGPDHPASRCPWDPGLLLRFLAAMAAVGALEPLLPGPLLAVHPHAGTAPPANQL
Method: Kinetics analysis using BIAcore T100 was performed for the interaction between the NRR domain of human Notch isotypes (Notch1, Notch2, Notch3, and Notch4) and Antibody B. Antibody B was purified from the culture supernatant of a stable expression CHO cell line of Antibody B with sequential use of protein A affinity chromatography, Capto Q anion exchange chromatography, and UNOsphere S cation exchange chromatography. Fusion proteins of Human Notch1 NRR domain (Genbank Accession No. 017617; sequence positions 1307-1733), human Notch2 NRR domain (Genbank Accession No. 024408; sequence positions 1239-1650), human Notch3 NRR domain (Genbank Accession No. 000435; sequence positions 1246-1641), and human Notch4 NRR domain (Genbank Accession No. NP_004548.3; sequence positions 1046-1445) with secretory alkaline phosphatase (SEAP), a hemagglutinin (HA) tag, and a histidine tag (×10) were created, and these were purified with HisTrap™ Fast Flow column (GE Healthcare). The interaction between Antibody B and the NRR domain of each human Notch isotypes was measured with the following method. The purified Antibody B was captured by anti-human IgG Fc antibody fixed on a CM5 sensor chip (GE Healthcare). The purified NRR domain of each human Notch isotypes was injected onto the sensor chip at 6 different concentrations, and the interaction and dissociation with the antibody were observed as per operation manual.

B1: Antibody B (antibody, human IgG2, kappa)
heavy: EVQLVESGGGLVQPGGSLRLSCAASGFTFSSYGMSWVRQAPGKGLELVATINSNGGRTYYPDSVKGRFTISRDNSKNTLYLQMGSLKAEDMAVYYCARDQGFAYWGQGTLVTVSSASTKGPSVFPLAPCSRSTSESTAALGCLVKDYFPEPVTVSWNSGALTSGVHTFPAVLQSSGLYSLSSVVTVPSSNFGTQTYTCNVDHKPSNTKVDKTVERKCCVECPPCPAPPAAAPSVFLFPPKPKDTLMISRTPEVTCVVVDVSHEDPEVQFNWYVDGVEVHNAKTKPREEQFNSTFRVVSVLTVVHQDWLNGKEYKCKVSNKGLPAPIEKTISKTKGQPREPQVYTLPPSREEMTKNQVSLTCLVKGFYPSDIAVEWESNGQPENNYKTTPPMLDSDGSFFLYSKLTVDKSRWQQGNVFSCSVMHEALHNHYTQKSLSLSPG
light: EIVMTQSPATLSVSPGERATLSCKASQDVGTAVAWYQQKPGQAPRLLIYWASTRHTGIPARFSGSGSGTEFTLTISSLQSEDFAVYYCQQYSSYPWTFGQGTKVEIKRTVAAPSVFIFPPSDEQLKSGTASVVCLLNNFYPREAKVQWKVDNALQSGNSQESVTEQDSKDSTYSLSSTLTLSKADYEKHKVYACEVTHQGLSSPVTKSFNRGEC
notes: Humanized IgG2 (V234A, G237A)/κ; also called HK3L3 (Lys-); HK3L3(Lys-)
B1 was tested, and the “IC50 of relative luminescence (%), Notch4-GAL4 luciferase reporter assay, reporter cells stimulated with solid phased DLL4” value [1] was 0.011 µg/mL, the “% of Control (relative luminescence), Notch4-GAL4 luciferase reporter assay, antibody at 10 µg/ml” value [2] was 10.8 % of Control and the Kd [3] was 0.331 nM. It also gave a koff [3] of 0.000822 s⁻¹, a kon [3] of 2.48e+06 M⁻¹ s⁻¹ and a Kd [4] of 3.74 nM. It also gave a koff [4] of 0.00118 s⁻¹, a kon [4] of 317000 M⁻¹ s⁻¹ and a Kd [5] of 3.62 nM. For the same binder, the koff [5] was 0.00106 s⁻¹, the kon [5] was 295000 M⁻¹ s⁻¹ and the Kd [6] was 11.2 nM. It also gave a koff [6] of 0.00727 s⁻¹, a kon [6] of 601000 M⁻¹ s⁻¹ and a Kd [7] of 0.441 nM. The koff [7] was 0.00071 s⁻¹, the kon [7] was 1.66e+06 M⁻¹ s⁻¹ and the Kd [8] was 30.5 nM. For the same binder, the koff [8] was 0.000831 s⁻¹ and the kon [8] was 27200 M⁻¹ s⁻¹.
